According to patent US20130071431A1, “Method for Preserving Polypeptides Using A Sugar and Polyethyleneimine” (Stabilitech Ltd., priority 2008, published 2013):

Columns and labels:
[1] = HRP activity assay (OPD/H2O2) after freeze-drying and heat-freeze cycles; type: biochemical
Experimental: Type IV horse radish peroxidase (HRP, Sigma-Aldrich) was diluted to 1 μg/ml in:
The PEI was obtained from Sigma (P3143, Mn 60,000). The PEI concentration was based on Mn. 10×100 μl volumes of each of the above solutions were prepared in 5 ml freeze-drying vials. Five replicates of each solution were freeze-dried from minus 32° C. over a 3 day cycle on a VirTis Advantage laboratory freeze-dryer using the protocol described in Example 6.
One vial from each solution of the liquid and dried samples was placed at 4° C. while the rest were frozen to −20° C. Samples from each of the liquid and dry solutions were subjected to 2, 4, and 6 heat-freeze cycles by removing them from the −20° C. freezer and placing them in an incubator set at 37° C. for 4 hours before replacing them in the freezer for 20 hrs 2, 4 and 6 times. 1 vial of each was retained at −20° C. as a control.
When the cycling was completed all the samples, including the −20° C. and 4° C. maintained non-cycled controls were allowed to equilibrate to room temperature. The freeze-dried samples were then reconstituted with 100 μl/vial of deionised water at room temperature.
Triplicate 10 μl samples were removed from each vial into wells of a flat bottomed ELISA plate (Nunc Maxisorb). To each well was then added 50 ul of a chromogen/substrate solution containing 0.4 mg/ml orthophenylene diamine (OPD) and 0.4 ul/ml 30% hydrogen peroxide (H2O2). Colour was allowed to develop before the reaction was stopped by the addition of 50 μl/well of 1M sulphuric acid (H2SO4). Absorbance was measured at 490 nm on a BioTek Synergy HT spectrophotometer and plotted as optical density (OD).

[2] = Beta-galactosidase assay with x-gal (Example 11); type: biochemical; conditions: 1M Suc, 100 mM Raf
Experimental: Excipients mixtures containing β-galactosidase were prepared according to the table below and vortexed. 10 units of β-galactosidase were added to each vial. 200 μl of the vortexed mixture was placed in each appropriately labelled 5 ml glass vials. PEI was obtained from Sigma (P3143, Mn 60,000).
The condenser chamber was −70° C. However there was no shelf control on the freeze-drying unit.
Following freeze-drying, vials were reconstituted in 1 ml PBS. 100 μl of the resulting solution from each vial was added in duplicate (giving a total of 6 readings per excipient type) to each well of a flat bottom 96 well plate. The substrate x-gal was added as according to the manufacturer's instructions. Briefly, a stock solution of 20 mg/ml was made in DMSO and used at a 1 mg/ml working concentration. 100 μl was added to each well and the solution allowed to develop over 10 minutes. Following development, absorbance was measured at 630 nm on a synergy HT microplate. Background from blank wells was then subtracted from all the readings and results assessed using Prism Graphpad.

[3] = test system: HL60 cells (ERK1/2 phosphorylation); test: HL60 cell stimulation assay, immunoblot of phosphorylated and total ERK1/2; type: cell-based
Experimental: A lyophilised sample of G-CSF was reconstituted to a concentration of 10 μg/ml. 160 μl of sucrose (1.82M) and 40 μl of raffinose (0.75M) were mixed with 50 μl of PEI (at a concentration of 150 nM based on Mn) to complete the preservation mixture. 50 μl of the reconstituted G-CSF solution was added and mixed well.
100 μl aliquots of the final mixture was distributed into separate vials, and frozen or freeze-dried. Lyophilisation was carried out overnight as described in Example 1. […] Following incubation, the samples were reconstituted in RPMI prior to use.
HL60 cells (shown to be mycoplasma free) were maintained in phenol red containing RPMI 1640 supplemented with 10% foetal bovine serum (FBS) and 2 mM glutamine. Cells were passaged weekly and medium was replenished every 2-3 days.
For stimulation assays HL60 cells were harvested and transferred to serum free medium at a density of 5×10^5 perwell of a 6 well plate. After 24 hours cells were stimulated for 5 minutes with the treatments shown in FIG. 2 (100 ng/ml G-CSF) and as indicated below:
Whole cell extracts were resolved by SDS-PAGE and then transferred to nylon membranes, which were immunoprobed with antibodies against phosphorylated and total ERK1/2.
Cell suspensions were harvested (1000 rpm for 5 minutes) and washed with ice-cold PBS. Cell pellets were then lysed in extraction buffer (1% (v/v) Triton X100, […], pH 7.4, 5 mM EDTA, 50 mM NaCl, 50 mM sodium fluoride 2 mM Na3VO4 and 1 tablet of Complete™ inhibitor mix (Boehringer) per 10 ml of buffer) and homogenised by passage through a 26-gauge needle 6 times. The lysate was incubated on ice for 10 minutes then clarified by centrifugation (14,000 rpm for 10 minutes at 4° C.). The protein concentration was then quantified using the […] (Biorad, Inc.). Equal amounts of protein ([…]) were resolved by SDS-PAGE (10% gels) and then subjected to immunoblot analysis. Antigen-antibody interactions were detected with ECL (Pierce, UK).

[4] = test system: HL-60 cells (phospho-ERK1/ERK2); test: Cell-based ELISA of phosphorylated ERK1/ERK2 in HL-60 cells
Experimental: Sucrose solution was prepared by adding 32 g sucrose powder to 32 ml PBS in a 50 ml falcon tube to give a final volume of 52 ml correlating to a final concentration of 61.54%. The solution was gently heated in a microwave to assist initial solvation but thereafter stored at 4° C.
Raffinose solution was prepared by adding 4 g raffinose to 8 ml PBS in a 50 ml falcon tube to give a final volume of 10.2 ml corresponding to a final concentration of 39.2%. The solution was heated in a microwave to allow complete solvation.
To produce the final sugar mix, the sucrose and raffinose solutions described above were mixed in a 4:1 ratio. In practise, 32 ml sucrose solution was mixed with 8 ml raffinose solution. Once composed, sugar mix was stored at 4° C. and suffered no precipitation.
6 g of PEI (50% w/v) was added to 500 ml PBS to make 6 mg/ml then diluted 1 in 10 to make 600 ug/ml. 600 μg/ml was then diluted to make 100 μg/ml solution of PEI. Serial 1 in 10 dilutions were prepared in PBS to a concentration of 0.01 μg/ml. For final concentrations of PEI refer to Table 2 below. Concentrations were calculated based on Mn.
10 μg of 98% purified recombinant human G-CSF was reconstituted in 1 ml of PBS and diluted to 0.2 ng/ml in PBS (1 in 50,000 dilution), with a starting concentration 10 μg/ml. The G-CSF was aliquoted in 15 μl in Eppendorf tubes and stored at −20° C. for further use.
First dilution: 10 μl of G-CSF at 10 μg/ml was added to 990 μl of PBS (1 in 100 dilutions). Second dilution: 10 μl of 1 in 100 dilutions of G-CSF was added to 4.99 ml of PBS (1 in 500 dilutions). For final concentrations of G-CSF refer to Table 2.
Excipients were prepared according to Table 2. The final concentration of G-CSF was 0.2 ng/ml per vial. The excipients were vortexed to mix and 100 μl placed in each appropriately labelled 5 ml glass vial. Samples were freeze dried by the VirTis Advantage freeze dryer for approximately 3 days.
Samples were prepared as 100 μl aliquots. Freeze-dried samples were resuspended in 100 μl of water.
The ELISA assay method described below was followed as general assay procedure of cell base assay's kit (R&D Systems).
HL-60 cells were maintained in phenol red containing RPMI 1640 supplemented with 20% foetal bovine serum (FBS), Glutamine and Penicillin Streptomycin. HL-60 cells were passaged weekly and medium was replenished every 2-3 days.
The HL-60 (passage three) were transferred to a centrifuge tube and spun down at 1300 rpm, for 5 minutes at 4° C. The supernatant was poured off into a T-75 flask. The pellet was resuspended in 10 ml cold media.
200 μl of cell suspension was transferred into an Eppendorf tube by using a 5 ml pipette. 100 μl of cell suspension was added to 100 μl of trypan blue into another Eppendorf tube and mixed. […]

[5] = native (untreated) G-CSF, 100 ng/ml, 5 minutes, serum starved HL60 cells

For “HRP: Type IV horse radish peroxidase (HRP, Sigma-Aldrich)”, the “HRP activity (OD 490 nm)” value ([1]; 1M Suc/100 mM Raf with or without 16.6 nM PEI versus PBS alone, all treatments and storage conditions) was “better maintained”, the “HRP activity after heat/freeze cycles” value ([1]; excipient-treated samples, 6 heat/freeze cycles (37° C. 4 hours / −20° C. 20 hrs)) was “still maintained more HRP activity than unchallenged samples in PBS” and the “loss of HRP activity” value ([1]; sugars, especially in combination with PEI, at the initial freeze-drying stage) was “significantly reduces loss of HRP activity”.

With “β-galactosidase: β-galactosidase enzyme (Sigma)” the “β-galactosidase activity following freeze-drying” value ([2]; 13.3 μM PEI, compared to sucrose/raffinose alone) was “further enhanced” and the “β-galactosidase activity following freeze-drying” value ([2]; no PEI, compared to PBS) was “high in sucrose/raffinose excipients compared to PBS”.

B1: G-CSF: human recombinant G-CSF (Sigma in Example 2; MBL JM-4094-10 in Examples 14 and 16) (protein, UniProt P09919 31-207, looked up)
Granulocyte …: TPLGPASSLPQSFLLKCLEQVRKIQGDGAALQEKLVSECATYKLCHPEELVLLGHSLGIPWAPLSSCPSQALQLAGCLSQLHSGLFLYQGLLQALEGISPELGPTLDTLQLDVADFATTIWQQMEELGMAPALQPTQGAMPAFASAFQRRAGGVLVASHLQSFLEVSYRVLRHLAQP
In the case of B1, the “potency (ERK1/2 phosphorylation) compared to untreated G-CSF” value ([3]; G-CSF mixed with excipient and freeze-dried (FIG. 2C)) is reported as “maintain the potency”, the “activity (ERK1/2 phosphorylation) compared to untreated G-CSF” value ([3]; G-CSF mixed with excipient then heat treated 37° C. for 72 hours, not freeze-dried (FIG. 2B)) is reported as “marked loss of activity” and the “protection against heat inactivation (ERK1/2 phosphorylation)” value ([3]; G-CSF mixed with excipient, freeze-dried and heat treated 37° C. for 72 hours (FIG. 2D)) is reported as “protect G-CSF against heat inactivation”. The ERK1/2 phosphorylation [3, 5] was “enhance phosphorylation”, the “total ERK1/2 levels” value [3, 5] was “without any effect” and the “level of phosphorylated ERK1/ERK2” value ([4]; 1M Suc, 0.1M Raf with 1.6 μM, 0.16 μM or 0.016 μM PEI, freeze dried, heat treated at 56° C. (15 min, 1 h, 2 h, O/N)) was “higher level of phosphorylated ERK1/ERK2”. For the same molecule, the “protection of G-CSF (ERK 1/2 phosphorylation)” value ([4]; 1M Suc, 0.1M Raf with 1.6 μM, 0.16 μM or 0.016 μM PEI, freeze dried, 37° C. or 56° C. for 1 week) was “protects and stabilises G-CSF”, the “efficacy (phosphorylated ERK1/ERK2)” value ([4]; freeze-dried with high level of PEI, heat treated at 56° C.) was “greater efficacy” and the “protection of G-CSF (ERK 1/2 phosphorylation)” value ([4]; sugars with PEI final concentration of 1.6 μM, freeze dried, 37° C. and 56° C. for 1 week) was “highest level of protection”.
